Measurements: the supplement of paper PMC9112550, “Optimization of the antimicrobial peptide Bac7 by deep mutational scanning” (BMC Biology, 2022)

Tested on: Escherichia coli TOP10
Experiment: shrunken log2 fold change of peptide-encoding DNA abundance (4.5 h post-induction vs induction); higher = less antimicrobial activity (less host growth inhibition)
Settings: time post-induction: 4.5 h; library: site-saturation at positions 5, 18, 19, 20
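Also: peptides expressed intracellularly from a pBAD plasmid library in pooled LB shake-flask culture, induced with 0.3% L-arabinose, DNA abundance read by NGS, three biological replicates, DESeq2 with apeglm shrinkage.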

| Sequence | shrunken log2 fold change |
| --- | --- |
| RRIRIRPPRLPRPRPRPSHNPRP | -1.06 |
| RRIRFRPPRLPRPRPRPTLDPRP | 0.0939 |
| RRIRVRPPRLPRPRPRPDGGPRP | -0.0572 |
| RRIRCRPPRLPRPRPRPRNHPRP | -0.0709 |
| RRIRVRPPRLPRPRPRPQKMPRP | -0.234 |
| RRIRWRPPRLPRPRPRPTIWPRP | 0.0311 |
| RRIRWRPPRLPRPRPRPTVPPRP | 0.0399 |
| RRIRHRPPRLPRPRPRPLGDPRP | 0.146 |
| RRIRFRPPRLPRPRPRPQCVPRP | -0.276 |
| RRIRWRPPRLPRPRPRPGSVPRP | 0.306 |
| RRIRMRPPRLPRPRPRPIGWPRP | 0.599 |
| RRIRLRPPRLPRPRPRPDGGPRP | -0.000524 |
| RRIRLRPPRLPRPRPRPVCSPRP | -0.14 |
| RRIRNRPPRLPRPRPRPMEPPRP | -0.0573 |
| RRIRLRPPRLPRPRPRPLIWPRP | 0.0251 |
| RRIRSRPPRLPRPRPRPYLFPRP | -0.676 |
| RRIRVRPPRLPRPRPRPKEDPRP | 0.0522 |
| RRIRLRPPRLPRPRPRPGGPPRP | 1.36 |
| RRIRLRPPRLPRPRPRPMSEPRP | -0.0383 |
| RRIRVRPPRLPRPRPRPSNPPRP | -0.454 |
| RRIRSRPPRLPRPRPRPPRPPRP | 0.684 |
| RRIRWRPPRLPRPRPRPVVDPRP | 0.0903 |
| RRIRERPPRLPRPRPRPWTQPRP | -0.298 |
| RRIRIRPPRLPRPRPRPHWMPRP | -1.57 |
| RRIRKRPPRLPRPRPRPKFVPRP | -0.0367 |

| Sequence | shrunken log2 fold change |
| --- | --- |
| RRIRVRPPRLPRPRPRPPTEPRP | 0.273 |
| RRIRDRPPRLPRPRPRPAANPRP | 0.273 |
| RRIRCRPPRLPRPRPRPCREPRP | -0.291 |
| RRIRSRPPRLPRPRPRPHFNPRP | -0.419 |
| RRIRHRPPRLPRPRPRPMHKPRP | 0.227 |
| RRIRARPPRLPRPRPRPIMRPRP | 0.491 |
| RRIRARPPRLPRPRPRPGELPRP | 0.333 |
| RRIRIRPPRLPRPRPRPKCDPRP | -0.352 |
| RRIRGRPPRLPRPRPRPRISPRP | 0.353 |
| RRIRLRPPRLPRPRPRPYEEPRP | -0.274 |
| RRIRARPPRLPRPRPRPNFIPRP | -0.521 |
| RRIRRRPPRLPRPRPRPVQGPRP | 0.223 |
| RRIRIRPPRLPRPRPRPGPLPRP | -0.00626 |
| RRIRYRPPRLPRPRPRPIWGPRP | -0.0267 |
| RRIRTRPPRLPRPRPRPDHMPRP | -0.109 |
| RRIRIRPPRLPRPRPRPCTWPRP | -0.227 |
| RRIRGRPPRLPRPRPRPCFQPRP | 0.106 |
| RRIRKRPPRLPRPRPRPILGPRP | 0.00783 |
| RRIRMRPPRLPRPRPRPCACPRP | 0.0487 |
| RRIRHRPPRLPRPRPRPTEDPRP | -0.00383 |
| RRIRGRPPRLPRPRPRPFYTPRP | -0.173 |
| RRIRRRPPRLPRPRPRPDEIPRP | 0.116 |
| RRIRWRPPRLPRPRPRPKESPRP | 0.293 |
| RRIRRRPPRLPRPRPRPIDAPRP | 0.227 |
| RRIRRRPPRLPRPRPRPDTCPRP | 0.133 |

| Sequence | shrunken log2 fold change |
| --- | --- |
| RRIRARPPRLPRPRPRPENYPRP | 0.0453 |
| RRIRYRPPRLPRPRPRPMCVPRP | -0.227 |
| RRIRDRPPRLPRPRPRPCQWPRP | -0.134 |
| RRIRDRPPRLPRPRPRPAALPRP | 0.488 |
| RRIRNRPPRLPRPRPRPNWEPRP | 0.0299 |
| RRIRKRPPRLPRPRPRPEMWPRP | 0.719 |
| RRIRRRPPRLPRPRPRPDPEPRP | 0.307 |
| RRIRARPPRLPRPRPRPDLAPRP | 1.07 |
| RRIRCRPPRLPRPRPRPCKCPRP | -0.0236 |
| RRIRRRPPRLPRPRPRPKGAPRP | 0.28 |
| RRIRRRPPRLPRPRPRPEFVPRP | -0.0836 |
| RRIRQRPPRLPRPRPRPVWEPRP | 0.0571 |
| RRIRHRPPRLPRPRPRPHYDPRP | -0.257 |
| RRIRWRPPRLPRPRPRPKNRPRP | 0.017 |
| RRIRKRPPRLPRPRPRPEVIPRP | -0.00256 |
| RRIRVRPPRLPRPRPRPNQPPRP | -0.0412 |
| RRIRDRPPRLPRPRPRPNLSPRP | -0.115 |
| RRIRMRPPRLPRPRPRPVWVPRP | 0.0789 |
| RRIRCRPPRLPRPRPRPKQPPRP | 0.595 |
| RRIRYRPPRLPRPRPRPMIPPRP | -0.727 |
| RRIRGRPPRLPRPRPRPSDPPRP | 0.261 |
| RRIRFRPPRLPRPRPRPICDPRP | 0.0526 |
| RRIRMRPPRLPRPRPRPYNNPRP | -0.4 |
| RRIRWRPPRLPRPRPRPMFTPRP | -0.0283 |
| RRIRERPPRLPRPRPRPMGHPRP | -0.298 |

| Sequence | shrunken log2 fold change |
| --- | --- |
| RRIRERPPRLPRPRPRPLHCPRP | 0.0821 |
| RRIRVRPPRLPRPRPRPMITPRP | 0.104 |
| RRIRSRPPRLPRPRPRPWLNPRP | -0.119 |
| RRIRHRPPRLPRPRPRPIEFPRP | -0.19 |
| RRIRSRPPRLPRPRPRPGWRPRP | 0.923 |
| RRIRSRPPRLPRPRPRPFSTPRP | -0.372 |
| RRIRSRPPRLPRPRPRPIREPRP | -0.0902 |
| RRIRPRPPRLPRPRPRPLDPPRP | 0.201 |
| RRIRGRPPRLPRPRPRPTKPPRP | 0.0691 |
| RRIRQRPPRLPRPRPRPPPRPRP | 1.25 |
| RRIRHRPPRLPRPRPRPSCMPRP | -0.224 |
| RRIRQRPPRLPRPRPRPGMIPRP | -0.446 |
| RRIRWRPPRLPRPRPRPHFDPRP | -0.0757 |
| RRIRLRPPRLPRPRPRPLWGPRP | 0.151 |
| RRIRQRPPRLPRPRPRPVWMPRP | -0.00887 |
| RRIRHRPPRLPRPRPRPPLIPRP | -0.0533 |
| RRIRNRPPRLPRPRPRPWSMPRP | -0.0638 |
| RRIRGRPPRLPRPRPRPDNEPRP | 1.84 |
| RRIRRRPPRLPRPRPRPEDDPRP | 1.11 |
| RRIRLRPPRLPRPRPRPMFHPRP | -0.681 |
| RRIRERPPRLPRPRPRPQLGPRP | 0.329 |
| RRIRVRPPRLPRPRPRPHGVPRP | 0.0673 |
| RRIRKRPPRLPRPRPRPPQVPRP | 0.00672 |
| RRIRGRPPRLPRPRPRPNGNPRP | 0.0103 |
| RRIRGRPPRLPRPRPRPVNMPRP | 0.189 |

| Sequence | shrunken log2 fold change |
| --- | --- |
| RRIRCRPPRLPRPRPRPHPFPRP | -0.0728 |
| RRIRARPPRLPRPRPRPPCCPRP | 0.571 |
| RRIRARPPRLPRPRPRPTCRPRP | 0.592 |
| RRIRWRPPRLPRPRPRPEYMPRP | -0.0342 |
| RRIRCRPPRLPRPRPRPEIQPRP | 0.141 |
| RRIRKRPPRLPRPRPRPYPPPRP | -0.289 |
| RRIRTRPPRLPRPRPRPVTVPRP | 0.0698 |
| RRIRGRPPRLPRPRPRPWADPRP | 0.142 |
| RRIRHRPPRLPRPRPRPKPKPRP | 0.231 |
| RRIRNRPPRLPRPRPRPQCPPRP | -0.33 |
| RRIRDRPPRLPRPRPRPTPRPRP | 0.792 |
| RRIRNRPPRLPRPRPRPNRYPRP | -0.0433 |
| RRIRNRPPRLPRPRPRPNYMPRP | -0.784 |
| RRIRMRPPRLPRPRPRPAQHPRP | 0.0457 |
| RRIRQRPPRLPRPRPRPIWFPRP | -0.000433 |
| RRIRRRPPRLPRPRPRPAKSPRP | 0.242 |
| RRIRRRPPRLPRPRPRPKGCPRP | 0.0288 |
| RRIRFRPPRLPRPRPRPMAIPRP | -0.226 |
| RRIRCRPPRLPRPRPRPSIIPRP | -0.348 |
| RRIRTRPPRLPRPRPRPRKVPRP | -0.295 |
| RRIRARPPRLPRPRPRPMILPRP | 0.0109 |
| RRIRIRPPRLPRPRPRPRQAPRP | 0.0194 |
| RRIRDRPPRLPRPRPRPFKGPRP | -0.617 |
| RRIRVRPPRLPRPRPRPTRSPRP | 0.17 |
| RRIRIRPPRLPRPRPRPDYVPRP | 0.012 |

| Sequence | shrunken log2 fold change |
| --- | --- |
| RRIRNRPPRLPRPRPRPWPEPRP | -0.0309 |
| RRIRSRPPRLPRPRPRPQRTPRP | -0.036 |
| RRIRDRPPRLPRPRPRPIHYPRP | -0.0149 |
| RRIRMRPPRLPRPRPRPERMPRP | 1.35 |
| RRIRQRPPRLPRPRPRPVYLPRP | -0.206 |
| RRIRRRPPRLPRPRPRPHNVPRP | -0.916 |
| RRIRGRPPRLPRPRPRPRQWPRP | 0.585 |
| RRIRSRPPRLPRPRPRPQDNPRP | -0.362 |
| RRIRCRPPRLPRPRPRPDTFPRP | 0.0257 |
| RRIRYRPPRLPRPRPRPWRGPRP | 0.318 |
| RRIRGRPPRLPRPRPRPQILPRP | -0.0843 |
| RRIRARPPRLPRPRPRPKICPRP | 0.0997 |
| RRIRERPPRLPRPRPRPWSTPRP | -0.237 |
| RRIRKRPPRLPRPRPRPNACPRP | 0.0357 |
| RRIRERPPRLPRPRPRPLTPPRP | -0.123 |
| RRIRCRPPRLPRPRPRPGGIPRP | -0.329 |
| RRIRFRPPRLPRPRPRPDQLPRP | 0.22 |
| RRIRCRPPRLPRPRPRPGEYPRP | 0.0239 |
| RRIRSRPPRLPRPRPRPVEEPRP | 0.0884 |
| RRIRDRPPRLPRPRPRPYKTPRP | -0.0411 |
| RRIRWRPPRLPRPRPRPGHSPRP | 0.0135 |
| RRIRQRPPRLPRPRPRPDAPPRP | 0.655 |
| RRIRARPPRLPRPRPRPICWPRP | 0.231 |
| RRIRPRPPRLPRPRPRPKHRPRP | 0.0187 |
| RRIRSRPPRLPRPRPRPPALPRP | 0.453 |
